# The Human Domainome abundance scans (Beltran et al. 2025)
# ± gives the uncertainty stated by the source.
# B1: GA-binding protein alpha chain, residues 172 to 250; numbered along this chain, Q06546 (parent)
# chain: GYRKEQERLGIPYDPIQWSTDQVLHWVVWVMKEFSMTDIDLTTLNISGRELCSLNQEDFFQRVPRGEILWSHLELLRKY
# Variants of: B1
# Assay: abundance fitness (aPCA) (normalised: wild type 0, dead -1); higher = more abundant; growth selection in yeast, the domain comes from the species named
# Conditions: Homo sapiens
row,Variant,abundance fitness
1,GYRKEQERLGIPYDPIQWSTDQVLHWVVWVMKEFSMTDIDLTTLNISGRELCSLNQEDFFQRVVRGEILWSHLELLRKY [P64V],-0.406 ± 0.039
2,GYRKEQERLGIPYDPIQWSTDQVLHWVVWVMKEFSMTDIDLTTLNISGRELCSLNQEDFFQRVARGEILWSHLELLRKY [P64A],-0.295 ± 0.054
3,GYRKEQERLGIPYDPIQWSTDQVLHWVVWVMKEFSMTDIDLTTLNISGRELCSLNQEDFFQRVIRGEILWSHLELLRKY [P64I],-0.554 ± 0.15
4,GYRKEQERLGIPYDPIQWSTDQVLHWVVWVMKEFSMTDIDLTTLNISGRELCSLNQEDFFQRVKRGEILWSHLELLRKY [P64K],-0.159 ± 0.057
5,GYRKEQERLGIPYDPIQWSTDQVLHWVVWVMKEFSMTDIDLTTLNISGRELCSLNQEDFFQRVGRGEILWSHLELLRKY [P64G],-0.158 ± 0.034
6,GYRKEQERLGIPYDPIQWSTDQVLHWVVWVMKEFSMTDIDLTTLNISGRELCSLNQEDFFQRVYRGEILWSHLELLRKY [P64Y],-0.744 ± 0.13
7,GYRKEQERLGIPYDPIQWSTDQVLHWVVWVMKEFSMTDIDLTTLNISGRELCSLNQEDFFQRVMRGEILWSHLELLRKY [P64M],-0.952 ± 0.33
8,GYRKEQERLGIPYDPIQWSTDQVLHWVVWVMKEFSMTDIDLTTLNISGRELCSLNQEDFFQRVNRGEILWSHLELLRKY [P64N],-0.177 ± 0.16
9,GYRKEQERLGIPYDPIQWSTDQVLHWVVWVMKEFSMTDIDLTTLNISGRELCSLNQEDFFQRVSRGEILWSHLELLRKY [P64S],-0.219 ± 0.041
10,GYRKEQERLGIPYDPIQWSTDQVLHWVVWVMKEFSMTDIDLTTLNISGRELCSLNQEDFFQRVDRGEILWSHLELLRKY [P64D],-0.738 ± 0.27
11,GYRKEQERLGIPYDPIQWSTDQVLHWVVWVMKEFSMTDIDLTTLNISGRELCSLNQEDFFQRVERGEILWSHLELLRKY [P64E],-0.23 ± 0.064
12,GYRKEQERLGIPYDPIQWSTDQVLHWVVWVMKEFSMTDIDLTTLNISGRELCSLNQEDFFQRVTRGEILWSHLELLRKY [P64T],-0.333 ± 0.044
13,GYRKEQERLGIPYDPIQWSTDQVLHWVVWVMKEFSMTDIDLTTLNISGRELCSLNQEDFFQRVQRGEILWSHLELLRKY [P64Q],-0.266 ± 0.05
14,GYRKEQERLGIPYDPIQWSTDQVLHWVVWVMKEFSMTDIDLTTLNISGRELCSLNQEDFFQRVWRGEILWSHLELLRKY [P64W],-0.67 ± 0.062
15,GYRKEQERLGIPYDPIQWSTDQVLHWVVWVMKEFSMTDIDLTTLNISGRELCSLNQEDFFQRVCRGEILWSHLELLRKY [P64C],-0.288 ± 0.098
16,GYRKEQERLGIPYDPIQWSTDQVLHWVVWVMKEFSMTDIDLTTLNISGRELCSLNQEDFFQRVFRGEILWSHLELLRKY [P64F],-0.611 ± 0.23
17,GYRKEQERLGIPYDPIQWSTDQVLHWVVWVMKEFSMTDIDLTTLNISGRELCSLNQEDFFQRVPDGEILWSHLELLRKY [R65D],0.084 ± 0.056
18,GYRKEQERLGIPYDPIQWSTDQVLHWVVWVMKEFSMTDIDLTTLNISGRELCSLNQEDFFQRVPFGEILWSHLELLRKY [R65F],-0.177 ± 0.082
19,GYRKEQERLGIPYDPIQWSTDQVLHWVVWVMKEFSMTDIDLTTLNISGRELCSLNQEDFFQRVPMGEILWSHLELLRKY [R65M],-0.127 ± 0.065
20,GYRKEQERLGIPYDPIQWSTDQVLHWVVWVMKEFSMTDIDLTTLNISGRELCSLNQEDFFQRVPHGEILWSHLELLRKY [R65H],-0.111 ± 0.071
21,GYRKEQERLGIPYDPIQWSTDQVLHWVVWVMKEFSMTDIDLTTLNISGRELCSLNQEDFFQRVPNGEILWSHLELLRKY [R65N],-0.07 ± 0.15
22,GYRKEQERLGIPYDPIQWSTDQVLHWVVWVMKEFSMTDIDLTTLNISGRELCSLNQEDFFQRVPYGEILWSHLELLRKY [R65Y],-0.033 ± 0.089
23,GYRKEQERLGIPYDPIQWSTDQVLHWVVWVMKEFSMTDIDLTTLNISGRELCSLNQEDFFQRVPEGEILWSHLELLRKY [R65E],0.033 ± 0.055

row,Variant,abundance fitness
1,GYRKEQERLGIPYDPIQWSTDQVLHWVVWVMKEFSMTDIDLTTLNISGRELCSLNQEDFFQRVPPGEILWSHLELLRKY [R65P],-0.455 ± 0.05
2,GYRKEQERLGIPYDPIQWSTDQVLHWVVWVMKEFSMTDIDLTTLNISGRELCSLNQEDFFQRVPVGEILWSHLELLRKY [R65V],-0.157 ± 0.043
3,GYRKEQERLGIPYDPIQWSTDQVLHWVVWVMKEFSMTDIDLTTLNISGRELCSLNQEDFFQRVPAGEILWSHLELLRKY [R65A],-0.003 ± 0.04
4,GYRKEQERLGIPYDPIQWSTDQVLHWVVWVMKEFSMTDIDLTTLNISGRELCSLNQEDFFQRVPGGEILWSHLELLRKY [R65G],0.007 ± 0.026
5,GYRKEQERLGIPYDPIQWSTDQVLHWVVWVMKEFSMTDIDLTTLNISGRELCSLNQEDFFQRVPLGEILWSHLELLRKY [R65L],-0.141 ± 0.037
6,GYRKEQERLGIPYDPIQWSTDQVLHWVVWVMKEFSMTDIDLTTLNISGRELCSLNQEDFFQRVPKGEILWSHLELLRKY [R65K],-0.013 ± 0.078
7,GYRKEQERLGIPYDPIQWSTDQVLHWVVWVMKEFSMTDIDLTTLNISGRELCSLNQEDFFQRVPCGEILWSHLELLRKY [R65C],-0.004 ± 0.081
8,GYRKEQERLGIPYDPIQWSTDQVLHWVVWVMKEFSMTDIDLTTLNISGRELCSLNQEDFFQRKPRGEILWSHLELLRKY [V63K],-0.864 ± 0.22
9,GYRKEQERLGIPYDPIQWSTDQVLHWVVWVMKEFSMTDIDLTTLNISGRELCSLNQEDFFQRMPRGEILWSHLELLRKY [V63M],-0.113 ± 0.073
10,GYRKEQERLGIPYDPIQWSTDQVLHWVVWVMKEFSMTDIDLTTLNISGRELCSLNQEDFFQRLPRGEILWSHLELLRKY [V63L],-0.073 ± 0.029
11,GYRKEQERLGIPYDPIQWSTDQVLHWVVWVMKEFSMTDIDLTTLNISGRELCSLNQEDFFQRPPRGEILWSHLELLRKY [V63P],-0.667 ± 0.12
12,GYRKEQERLGIPYDPIQWSTDQVLHWVVWVMKEFSMTDIDLTTLNISGRELCSLNQEDFFQRNPRGEILWSHLELLRKY [V63N],-0.384 ± 0.12
13,GYRKEQERLGIPYDPIQWSTDQVLHWVVWVMKEFSMTDIDLTTLNISGRELCSLNQEDFFQRWPRGEILWSHLELLRKY [V63W],-0.042 ± 0.041
14,GYRKEQERLGIPYDPIQWSTDQVLHWVVWVMKEFSMTDIDLTTLNISGRELCSLNQEDFFQRYPRGEILWSHLELLRKY [V63Y],-0.221 ± 0.1
15,GYRKEQERLGIPYDPIQWSTDQVLHWVVWVMKEFSMTDIDLTTLNISGRELCSLNQEDFFQRIPRGEILWSHLELLRKY [V63I],-0.077 ± 0.068
16,GYRKEQERLGIPYDPIQWSTDQVLHWVVWVMKEFSMTDIDLTTLNISGRELCSLNQEDFFQRRPRGEILWSHLELLRKY [V63R],-1.06 ± 0.11
17,GYRKEQERLGIPYDPIQWSTDQVLHWVVWVMKEFSMTDIDLTTLNISGRELCSLNQEDFFQRTPRGEILWSHLELLRKY [V63T],-0.172 ± 0.072
18,GYRKEQERLGIPYDPIQWSTDQVLHWVVWVMKEFSMTDIDLTTLNISGRELCSLNQEDFFQRQPRGEILWSHLELLRKY [V63Q],-0.235 ± 0.068
19,GYRKEQERLGIPYDPIQWSTDQVLHWVVWVMKEFSMTDIDLTTLNISGRELCSLNQEDFFQRVPRREILWSHLELLRKY [G66R],-0.562 ± 0.04
20,GYRKEQERLGIPYDPIQWSTDQVLHWVVWVMKEFSMTDIDLTTLNISGRELCSLNQEDFFQRVPRCEILWSHLELLRKY [G66C],-0.298 ± 0.04
21,GYRKEQERLGIPYDPIQWSTDQVLHWVVWVMKEFSMTDIDLTTLNISGRELCSLNQEDFFQRVPRKEILWSHLELLRKY [G66K],-0.728 ± 0.12
22,GYRKEQERLGIPYDPIQWSTDQVLHWVVWVMKEFSMTDIDLTTLNISGRELCSLNQEDFFQRVPRTEILWSHLELLRKY [G66T],-0.735 ± 0.17
23,GYRKEQERLGIPYDPIQWSTDQVLHWVVWVMKEFSMTDIDLTTLNISGRELCSLNQEDFFQRVPRPEILWSHLELLRKY [G66P],-0.019 ± 0.04

row,Variant,abundance fitness
1,GYRKEQERLGIPYDPIQWSTDQVLHWVVWVMKEFSMTDIDLTTLNISGRELCSLNQEDFFQRVPRQEILWSHLELLRKY [G66Q],-0.773 ± 0.17
2,GYRKEQERLGIPYDPIQWSTDQVLHWVVWVMKEFSMTDIDLTTLNISGRELCSLNQEDFFQRVPRDEILWSHLELLRKY [G66D],-0.889 ± 0.13
3,GYRKEQERLGIPYDPIQWSTDQVLHWVVWVMKEFSMTDIDLTTLNISGRELCSLNQEDFFQRVPRMEILWSHLELLRKY [G66M],-0.967 ± 0.16
4,GYRKEQERLGIPYDPIQWSTDQVLHWVVWVMKEFSMTDIDLTTLNISGRELCSLNQEDFFQRVPRLEILWSHLELLRKY [G66L],-0.795 ± 0.077
5,GYRKEQERLGIPYDPIQWSTDQVLHWVVWVMKEFSMTDIDLTTLNISGRELCSLNQEDFFQRVPRVEILWSHLELLRKY [G66V],-0.835 ± 0.083
6,GYRKEQERLGIPYDPIQWSTDQVLHWVVWVMKEFSMTDIDLTTLNISGRELCSLNQEDFFQRVPRHEILWSHLELLRKY [G66H],-0.608 ± 0.11
7,GYRKEQERLGIPYDPIQWSTDQVLHWVVWVMKEFSMTDIDLTTLNISGRELCSLNQEDFFQRVPRAEILWSHLELLRKY [G66A],-0.025 ± 0.039
8,GYRKEQERLGIPYDPIQWSTDQVLHWVVWVMKEFSMTDIDLTTLNISGRELCSLNQEDFFQRVPRIEILWSHLELLRKY [G66I],-0.772 ± 0.37
9,GYRKEQERLGIPYDPIQWSTDQVLHWVVWVMKEFSMTDIDLTTLNISGRELCSLNQEDFFQRVPRSEILWSHLELLRKY [G66S],-0.199 ± 0.037
10,GYRKEQERLGIPYDPIQWSTDQVLHWVVWVMKEFSMTDIDLTTLNISGRELCSLNQEDFFQRVPRGPILWSHLELLRKY [E67P],-0.239 ± 0.042
11,GYRKEQERLGIPYDPIQWSTDQVLHWVVWVMKEFSMTDIDLTTLNISGRELCSLNQEDFFQRVPRGKILWSHLELLRKY [E67K],0.064 ± 0.12
12,GYRKEQERLGIPYDPIQWSTDQVLHWVVWVMKEFSMTDIDLTTLNISGRELCSLNQEDFFQRVPRGDILWSHLELLRKY [E67D],-0.133 ± 0.08
13,GYRKEQERLGIPYDPIQWSTDQVLHWVVWVMKEFSMTDIDLTTLNISGRELCSLNQEDFFQRVPRGMILWSHLELLRKY [E67M],-0.147 ± 0.055
14,GYRKEQERLGIPYDPIQWSTDQVLHWVVWVMKEFSMTDIDLTTLNISGRELCSLNQEDFFQRVPRGRILWSHLELLRKY [E67R],-0.101 ± 0.032
15,GYRKEQERLGIPYDPIQWSTDQVLHWVVWVMKEFSMTDIDLTTLNISGRELCSLNQEDFFQRVPRGCILWSHLELLRKY [E67C],-0.19 ± 0.11
16,GYRKEQERLGIPYDPIQWSTDQVLHWVVWVMKEFSMTDIDLTTLNISGRELCSLNQEDFFQRVPRGNILWSHLELLRKY [E67N],-0.077 ± 0.098
17,GYRKEQERLGIPYDPIQWSTDQVLHWVVWVMKEFSMTDIDLTTLNISGRELCSLNQEDFFQRVPRGHILWSHLELLRKY [E67H],0.004 ± 0.083
18,GYRKEQERLGIPYDPIQWSTDQVLHWVVWVMKEFSMTDIDLTTLNISGRELCSLNQEDFFQRVPRGQILWSHLELLRKY [E67Q],-0.121 ± 0.08
19,GYRKEQERLGIPYDPIQWSTDQVLHWVVWVMKEFSMTDIDLTTLNISGRELCSLNQEDFFQRVPRGGILWSHLELLRKY [E67G],-0.027 ± 0.034
20,GYRKEQERLGIPYDPIQWSTDQVLHWVVWVMKEFSMTDIDLTTLNISGRELCSLNQEDFFQRVPRGLILWSHLELLRKY [E67L],-0.249 ± 0.049
21,GYRKEQERLGIPYDPIQWSTDQVLHWVVWVMKEFSMTDIDLTTLNISGRELCSLNQEDFFQRVPRGAILWSHLELLRKY [E67A],-0.029 ± 0.039
22,GYRKEQERLGIPYDPIQWSTDQVLHWVVWVMKEFSMTDIDLTTLNISGRELCSLNQEDFFQRVPRGIILWSHLELLRKY [E67I],-0.189 ± 0.09
23,GYRKEQERLGIPYDPIQWSTDQVLHWVVWVMKEFSMTDIDLTTLNISGRELCSLNQEDFFQRVPRGFILWSHLELLRKY [E67F],-0.249 ± 0.088
